Test results reported in patent US20030187223A1 (US Dept. of Health and Human Services, published 2003).

Target: T1, bovine serum albumin (bovine, UniProt P02769 25-607)
T1 construct: Control coat in the ELISA; also called BSA
Assay: ELISA, wells coated with BSA alone, Wg conditioned medium
Description: First, an ELISA was used to measure sFRP-1 binding to Wg. Wells were coated with purified full-length sFRP-1 and then blocked with an excess of BSA. Subsequently, conditioned medium from S2HSWg cells expressing soluble Wg was incubated in the wells overnight at room temperature. As a control, aliquots of the same medium were incubated in wells treated with BSA but not sFRP-1. […] In contrast, little Wg was detected in wells that had not been treated with sFRP-1 , and no signal was observed when medium lacking Wg was used in the assay (FIG. 3, A and B).
sFRP-1/Wg ELISA Binding Assays—sFRP-1 diluted in 0.02% NaN₃/PBS was incubated in 96-well Falcon ELISA plates (300 ng/[…]) for 2 h at 37° C. After decanting, all wells were filled with 4% BSA/0.02% NaN₃/PBS and incubated for an additional 2 h at 37° C. Following five washes with TAPS (0.05% Tween-20 in 0.02% NaN₃/PBS), […] of Wg-containing or S2 control medium diluted in 1% BSA/TAPS were incubated overnight at room temperature. After five washes with TAPS, […] of Wg mAb diluted in 1% BSA/TAPS to a final concentration of […] was incubated in wells for 2 h at 37° C. Another five washes in TAPS were followed by a 2 h treatment at 37° C. with 1:400 dilution of conjugated alkaline phosphatase-goat anti-mouse IgG (Sigma). […] Absorbance at 405 nm was measured with an ELISA plate reader (Bio-Rad, Hercules, Calif.). […]

T1 sequence (P02769 25-607 limits assumed): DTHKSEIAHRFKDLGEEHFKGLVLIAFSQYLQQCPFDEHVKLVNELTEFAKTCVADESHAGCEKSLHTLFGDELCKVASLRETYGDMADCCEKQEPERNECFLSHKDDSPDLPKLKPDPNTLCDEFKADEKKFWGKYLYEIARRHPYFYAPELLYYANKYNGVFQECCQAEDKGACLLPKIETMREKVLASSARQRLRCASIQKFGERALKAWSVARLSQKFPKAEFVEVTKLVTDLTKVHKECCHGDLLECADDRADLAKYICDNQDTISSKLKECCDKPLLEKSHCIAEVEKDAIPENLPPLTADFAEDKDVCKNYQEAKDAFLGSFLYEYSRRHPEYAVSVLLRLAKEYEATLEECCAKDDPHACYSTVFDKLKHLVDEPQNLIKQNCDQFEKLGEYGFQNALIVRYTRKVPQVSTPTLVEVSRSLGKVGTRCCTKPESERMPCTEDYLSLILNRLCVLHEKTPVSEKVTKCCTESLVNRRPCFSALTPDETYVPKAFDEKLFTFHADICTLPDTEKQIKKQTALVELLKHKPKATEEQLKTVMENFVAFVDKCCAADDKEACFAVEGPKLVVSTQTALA

- binding result: no binding
B1: Wingless (Wg), soluble, in conditioned medium of S2HSWg cells (ligand, Drosophila melanogaster, UniProt P09615 18-468, looked up)
chain: GSSLSQVEGKQKSGRGRGSMWWGIAKVGEPNNITPIMYMDPAIHSTLRRKQRRLVRDNPGVLGALVKGANLAISECQHQFRNRRWNCSTRNFSRGKNLFGKIVDRGCRETSFIYAITSAAVTHSIARACSEGTIESCTCDYSHQSRSPQANHQAGSVAGVRDWEWGGCSDNIGFGFKFSREFVDTGERGRNLREKMNLHNNEAGRAHVQAEMRQECKCHGMSGSCTVKTCWMRLANFRVIGDNLKARFDGATRVQVTNSLRATNALAPVSPNAAGSNSVGSNGLIIPQSGLVYGEEEERMLNDHMPDILLENSHPISKIHHPNMPSPNSLPQAGQRGGRNGRRQGRKHNRYHFQLNPHNPEHKPPGSKDLVYLEPSPSFCEKNLRQGILGTHGRQCNETSLGVDGCGLMCCGRGYRRDEVVVVERCACTFHWCCEVKCKLCRTKKVIYTCL
notes: Used as unpurified conditioned medium; also called Wg medium; Wg-containing medium
